Test results published in publication PMC4615246 (Nucleus, 2015).

Experiments:
LacI-CFP-Nup153 = molecular target: T1, LacI-CFP-Nup153 (human, UniProt P49790 1-1475); experiment: LacI/LacO array recruitment in cells
T1 sequence: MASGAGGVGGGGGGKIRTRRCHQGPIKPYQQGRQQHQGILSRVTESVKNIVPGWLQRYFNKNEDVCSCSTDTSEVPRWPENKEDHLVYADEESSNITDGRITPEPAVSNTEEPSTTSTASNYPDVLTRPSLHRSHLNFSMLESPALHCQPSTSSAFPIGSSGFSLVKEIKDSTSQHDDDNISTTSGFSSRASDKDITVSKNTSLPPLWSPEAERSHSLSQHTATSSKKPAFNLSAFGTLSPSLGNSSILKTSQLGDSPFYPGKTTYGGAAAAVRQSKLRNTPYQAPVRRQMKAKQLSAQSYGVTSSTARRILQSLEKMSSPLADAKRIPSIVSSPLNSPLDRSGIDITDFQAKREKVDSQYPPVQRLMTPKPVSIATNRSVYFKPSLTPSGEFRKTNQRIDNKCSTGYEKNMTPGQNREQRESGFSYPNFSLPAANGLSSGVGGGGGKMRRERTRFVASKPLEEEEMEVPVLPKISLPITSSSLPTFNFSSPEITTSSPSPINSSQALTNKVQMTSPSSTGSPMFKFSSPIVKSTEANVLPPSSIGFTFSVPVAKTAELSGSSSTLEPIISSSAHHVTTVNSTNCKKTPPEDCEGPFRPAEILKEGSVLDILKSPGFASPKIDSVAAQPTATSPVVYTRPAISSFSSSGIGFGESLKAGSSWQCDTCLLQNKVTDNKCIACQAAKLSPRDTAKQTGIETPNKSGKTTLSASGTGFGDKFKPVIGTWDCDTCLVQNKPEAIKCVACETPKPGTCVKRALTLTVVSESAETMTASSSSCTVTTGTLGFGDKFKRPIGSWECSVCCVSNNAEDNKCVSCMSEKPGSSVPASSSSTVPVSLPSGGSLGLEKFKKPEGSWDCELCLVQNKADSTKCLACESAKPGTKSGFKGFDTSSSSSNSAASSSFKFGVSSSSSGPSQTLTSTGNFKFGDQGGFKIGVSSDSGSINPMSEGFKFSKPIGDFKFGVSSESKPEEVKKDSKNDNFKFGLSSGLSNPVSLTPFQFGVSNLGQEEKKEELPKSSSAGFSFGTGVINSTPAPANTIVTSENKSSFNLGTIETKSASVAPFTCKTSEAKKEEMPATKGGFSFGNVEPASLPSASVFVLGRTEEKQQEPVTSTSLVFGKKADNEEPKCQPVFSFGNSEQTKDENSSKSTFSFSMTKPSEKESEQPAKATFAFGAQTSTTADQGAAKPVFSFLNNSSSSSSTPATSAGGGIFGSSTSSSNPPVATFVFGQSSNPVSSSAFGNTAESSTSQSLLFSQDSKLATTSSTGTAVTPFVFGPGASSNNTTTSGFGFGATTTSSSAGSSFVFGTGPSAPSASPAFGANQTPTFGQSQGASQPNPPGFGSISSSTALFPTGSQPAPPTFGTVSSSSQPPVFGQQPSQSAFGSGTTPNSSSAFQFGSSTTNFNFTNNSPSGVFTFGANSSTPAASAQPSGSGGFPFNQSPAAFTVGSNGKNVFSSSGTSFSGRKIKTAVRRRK

LacI-CFP-Nup155 = molecular target: T2, LacI-CFP-Nup155 (human, UniProt O75694 1-1391); experiment: LacI/LacO array recruitment in cells
T2 sequence: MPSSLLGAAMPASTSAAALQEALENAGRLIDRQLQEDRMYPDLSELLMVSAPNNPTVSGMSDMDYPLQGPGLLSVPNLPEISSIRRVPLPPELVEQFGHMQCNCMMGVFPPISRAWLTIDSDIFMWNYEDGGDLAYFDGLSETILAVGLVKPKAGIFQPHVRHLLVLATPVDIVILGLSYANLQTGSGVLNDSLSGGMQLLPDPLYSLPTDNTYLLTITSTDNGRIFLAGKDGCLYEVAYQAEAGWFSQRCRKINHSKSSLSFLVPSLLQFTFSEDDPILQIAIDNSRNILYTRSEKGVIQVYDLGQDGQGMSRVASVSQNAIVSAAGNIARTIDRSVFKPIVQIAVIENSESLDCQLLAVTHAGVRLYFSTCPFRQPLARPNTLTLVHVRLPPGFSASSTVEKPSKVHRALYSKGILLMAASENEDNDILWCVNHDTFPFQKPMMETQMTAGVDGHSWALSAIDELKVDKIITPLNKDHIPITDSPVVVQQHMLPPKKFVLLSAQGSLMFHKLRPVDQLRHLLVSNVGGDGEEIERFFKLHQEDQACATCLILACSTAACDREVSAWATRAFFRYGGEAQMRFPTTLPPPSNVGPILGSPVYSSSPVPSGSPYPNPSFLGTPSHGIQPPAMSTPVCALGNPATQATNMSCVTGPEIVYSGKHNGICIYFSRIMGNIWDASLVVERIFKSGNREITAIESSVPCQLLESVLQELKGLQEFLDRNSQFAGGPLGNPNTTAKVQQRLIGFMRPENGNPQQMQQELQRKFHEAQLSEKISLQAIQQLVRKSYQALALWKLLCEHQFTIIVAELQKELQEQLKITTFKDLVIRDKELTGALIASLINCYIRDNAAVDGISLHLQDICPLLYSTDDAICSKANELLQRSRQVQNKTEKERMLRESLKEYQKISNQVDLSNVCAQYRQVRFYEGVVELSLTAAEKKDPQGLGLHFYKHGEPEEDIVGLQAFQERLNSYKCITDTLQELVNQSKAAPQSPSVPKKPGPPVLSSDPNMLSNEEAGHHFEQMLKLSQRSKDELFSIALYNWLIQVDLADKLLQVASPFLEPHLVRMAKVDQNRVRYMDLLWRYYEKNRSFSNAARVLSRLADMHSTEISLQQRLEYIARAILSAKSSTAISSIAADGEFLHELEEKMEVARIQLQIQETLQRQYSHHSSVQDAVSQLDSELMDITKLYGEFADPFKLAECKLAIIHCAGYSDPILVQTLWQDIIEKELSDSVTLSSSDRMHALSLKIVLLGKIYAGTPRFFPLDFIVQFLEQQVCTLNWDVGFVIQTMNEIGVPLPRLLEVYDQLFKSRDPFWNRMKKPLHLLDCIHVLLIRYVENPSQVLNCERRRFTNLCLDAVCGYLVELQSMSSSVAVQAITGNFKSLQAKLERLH

- percent of transfected cells showing colocalization (LacI-CFP-Nup153): 14%
- percent of transfected cells showing colocalization (LacI-CFP-Nup155): 46%
B1: Nup53 (endogenous) (natural protein)
chain: MAAFAVEPQGPALGSEPMMLGSPTSPKPGVNAQFLPGFLMGDLPAPVTPQPRSISGPSVGVMEMRSPLLAGGSPPQPVVPAHKDKSGAPPVRSIYDDISSPGLGSTPLTSRRQPNISVMQSPLVGVTSTPGTGQSMFSPASIGQPRKTTLSPAQLDPFYTQGDSLTSEDHLDDSWVTVFGFPQASASYILLQFAQYGNILKHVMSNTGNWMHIRYQSKLQARKALSKDGRIFGESIMIGVKPCIDKSVMESSDRCALSSPSLAFTPPIKTLGTPTQPGSTPRISTMRPLATAYKASTSDYQVISDRQTPKKDESLVSKAMEYMFGW
